The values below come from CN101123983A (MEDIMMUNE INC, dated 2008).

Experiment [1] deals with T1, 人EphA4-His融合蛋白 (human EphA4 extracellular domain fused to a histidine tag) (human, UniProt P54764 20-547).
T1 construct: also called rhuEphA4-His; not shown: histidine tag
The experiment can be described thus: secondary screen of combination variant Fabs: activity ELISA on coated human EphA4-His, normalised by Fab quantitation ELISA. Background: An ELISA detects its analyte on a solid surface through an enzyme-linked reagent.

In experiment [2] the target is T1, 人EphA4-His融合蛋白 (human EphA4 …). The experiment is described as follows: secondary screen: activity ELISA on coated human EphA4-His, normalised by Fab quantitation ELISA, against parent Fab20.

T1 sequence (P54764 20-547): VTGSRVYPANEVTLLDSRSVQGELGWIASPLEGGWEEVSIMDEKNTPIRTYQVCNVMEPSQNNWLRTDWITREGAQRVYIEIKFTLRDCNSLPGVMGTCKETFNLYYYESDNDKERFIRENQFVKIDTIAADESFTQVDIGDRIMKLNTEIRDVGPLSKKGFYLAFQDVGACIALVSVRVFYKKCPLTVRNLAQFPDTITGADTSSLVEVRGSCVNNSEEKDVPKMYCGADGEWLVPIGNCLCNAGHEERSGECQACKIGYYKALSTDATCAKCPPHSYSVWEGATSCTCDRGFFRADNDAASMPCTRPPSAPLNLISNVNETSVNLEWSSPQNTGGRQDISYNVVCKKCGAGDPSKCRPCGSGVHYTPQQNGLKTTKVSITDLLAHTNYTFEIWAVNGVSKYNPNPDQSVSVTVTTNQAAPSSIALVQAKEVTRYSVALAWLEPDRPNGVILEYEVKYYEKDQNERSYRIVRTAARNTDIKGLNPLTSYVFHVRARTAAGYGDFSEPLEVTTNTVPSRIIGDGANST

B1: 6B7 (Fab, V domains shown)
VH: QVQLLQSGAEVKKPGASVKVPCKASGYTFTSRAMSWVRQAPGQGLEWMGWINTNTGNPTYAQGFTGRFVFSLDTSVSTAYLQISSLKAEDTAVYYCARVRFTVYGDGMDVWGQGTLVTVSS
VL: EIVLTQSPATLSVSPGERATLSCRASQSVSSNPAWYQQKPGQAPRLLIYGASTRATGIPDRFSASGSGTDFTLTISRVEPEDFAVYYCQQYGPSWTFGQGTKVEIK
B1: the binding result in experiment [1] is reported as “binds”.

B2: 1B10 (Fab, V domains shown)
VH: QVQLLQSGAEVKKPGASVKVPCKASGYTFTSRAMSWVRQAPGQGLEWMGWINTNTGNPTYAQGFTGRFVFSLDTSVSTAYLQISSLKAEDTAVYYCARVRFTVYGDGMDVWGQGTLVTVSS
VL: EIVLTQSPATLSVSPGERATLSCRASQSVSSNPAWYQQKPGQAPRLLIYGASTWATGIPDRFSASGSGTDFTLTISRVEPEDFAVYYCQQYGPSWTFGQGTKVEIK
For B2, in experiment [1], the binding result is recorded as “binds”.

B3: 3A12 (Fab, V domains shown)
VH: QVQLLQSGAEVKKPGASVKVPCKASGYTFTSRAMSWVRQAPGQGLEWMGWINTNTGNPTYAQGFTGRFVFSLDTSVSTAYLQISSLKAEDTAVYYCARVRFTVYGDGMDVWGQGTLVTVSS
VL: EIVLTQSPATLSVSPGERATLSCRASQSVSSNLAWYQQKPGQAPRLLIYGASTWATGIPDRFSASGSGTDFTLTISRVEPEDFAVYYCQQYGPSWTFGQGTKVEIK
As for B3, the binding result in experiment [1] was “binds”.

B4: 1A4 (Fab, V domains shown)
VH: QVQLLQSGAEVKKPGASVKVPCKASGYTFTSRAMSWVRQAPGQGLEWMGWINTNTGNPTYAQGSTGRFVFSLDTSVSTAYLQISSLKAEDTAVYYCARVRFTVYGDGMDVWGQGTLVTVSS
VL: EIVLTQSPATLSVSPGERATLSCRASQSVSSNPAWYQQKPGQAPRLLIYGASTRATGIPDRFSASGSGTDFTLTISRVEPEDFAVYYCQQYGPSWTFGQGTKVEIK
On to B4, for which, in experiment [1], the binding result was “binds”.

B5: 3C6 (Fab, V domains shown)
VH: QVQLLQSGAEVKKPGASVKVPCKASGYTFTSRAMSWVRQAPGQGLEWMGWINTNTGNPTYAQGFTGRFVFSLDTSVSTAYLQISSLKAEDTAVYYCARVRLTVYGDGMDVWGQGTLVTVSS
VL: EIVLTQSPATLSVSPGERATLSCRASQSVSSNPPWYQQKPGQAPRLLIYGASTRATGIPDRFSASGSGTDFTLTISRVEPEDFAVYYCQQYGSSWTFGQGTKVEIK
In the case of B5, in experiment [1], the binding result is “binds”.

B6: 11H1 (Fab, V domains shown)
VH: QVQLLQSGAEVKKPGASVKVPCKASGYTFTSYAMSWVRQAPGQGLEWMGWINTNTGNPTYAQGFTGRFVFSLDTSVSTAYLQISSLKAEDTAVYYCARVRLTVYGDGMDVWGQGTLVTVSS
VL: EIVLTQSPATLSVSPGERATLSCRASQSVSSNLAWYQQKPGQAPRLLIYGASTRATGIPDRFSASGSGTDFTLTISRVEPEDFAVYYCQQYGSSWTFGQGTKVEIK
notes: Fab with human gamma1 CH1 and human kappa constant domain; also called GEA44衍生物11H1
Consider B6, for which, in experiment [2], the binding result is reported as “binds”.

B7: 1G11 (Fab, V domains shown)
VH: QVQLLQSGAEVKKPGASVKVPCKASGYTFTSRAMSWVRQAPGQGLEWMGWINTNTGNPTYAQGFTGRFVFSLDTSVSTAYLQISSLKAEDTAVYYCARVRFTVYGDGMDVWGQGTLVTVSS
VL: EIVLTQSPATLSVSPGERATLSCRASQSVSSNLPWYQQKPGQAPRLLIYGASTRPTGIPDRFSASGSGTDFTLTISRVEPEDFAVYYCQQYGPSWTFGQGTKVEIK
Consider B7, for which the binding result in experiment [1] is listed as “binds”.

B8: 1D11 (Fab, V domains shown)
VH: QVQLLQSGAEVKKPGASVKVPCKASGYTFTSRAMSWVRQAPGQGLEWMGWINTNTGNPTYAQGFTGRFVFSLDTSVSTAYLQISSLKAEDTAVYYCARVRTTVYGDNMDVWGQGTLVTVSS
VL: EIVLTQSPATLSVSPGERATLSCRASQSVSSNLPWYQQKPGQAPRLLIYGASTRATGIPDRFSASGSGTDFTLTISRVEPEDFAVYYCQQYGPSWTFGQGTKVEIK
For B8, the binding result in experiment [1] was “binds”.
